Measurements: the supplement of paper PMC7125110
± gives the standard error. For part of these data: This sample holds only a part of the variants without activity.

B1: glmS ribozyme (parent)
chain: AUAAAAGCGCCAGAACUACAGAAAUGUAGUUGACGAGGAGGAGGUUUAUCGAAUUUUCGGCGGAUGCCUCCAAA

What was measured:
Settings in all cases: with glucosamine-6-phosphate
glucosamine-6-phosphate [1] = variants of: B1; assay: kcat; higher = faster cleavage; RNA array
Procedure, shortened: (§1)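 Using a hybridised Cy3 probe at 37 °C, barcoded ribozyme variants transcribed in situ by E. coli RNA polymerase on sequenced MiSeq chips were monitored across tiles imaged over ~14 h. The flow contained glucosamine-6-phosphate from 40 μM to 10 mM in HEPES/KCl/Mg(OAc)2 buffer. Signals were normalised to baseline and to non-cleaving reference variants before per-tile medians were fit to one- or two-exponential decays to yield kobs. Weighted Michaelis–Menten fits across concentrations gave kcat and KM.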

glucosamine-6-phosphate [2] = variants of: B1; assay: self-cleavage kobs at 40 uM GlcN6P; higher = faster cleavage; RNA array
Procedure, shortened: as §1

glucosamine-6-phosphate [3] = variants of: B1; assay: KM; higher = weaker cofactor use; RNA array
Procedure, shortened: as §1

glucosamine-6-phosphate [4] = variants of: B1; assay: self-cleavage kobs at 160 uM GlcN6P; higher = faster cleavage; RNA array
Procedure, shortened: as §1

glucosamine-6-phosphate [5] = variants of: B1; assay: self-cleavage kobs at 640 uM GlcN6P; higher = faster cleavage; RNA array
Procedure, shortened: as §1

glucosamine-6-phosphate [6] = variants of: B1; assay: self-cleavage kobs at 2500 uM GlcN6P; higher = faster cleavage; RNA array
Procedure, shortened: as §1

glucosamine-6-phosphate [7] = variants of: B1; assay: self-cleavage kobs at 10000 uM GlcN6P; higher = faster cleavage; RNA array
Procedure, shortened: as §1

| Variant | kcat (glucosamine-6-phosphate [1]) | self-cleavage kobs at 40 uM GlcN6P (glucosamine-6-phosphate [2]) | KM (glucosamine-6-phosphate [3]) | self-cleavage kobs at 160 uM GlcN6P (glucosamine-6-phosphate [4]) | self-cleavage kobs at 640 uM GlcN6P (glucosamine-6-phosphate [5]) | self-cleavage kobs at 2500 uM GlcN6P (glucosamine-6-phosphate [6]) | self-cleavage kobs at 10000 uM GlcN6P (glucosamine-6-phosphate [7]) |
| --- | --- | --- | --- | --- | --- | --- | --- |
| G51A C71U | < 1e-05 s⁻¹ | < 1e-05 s⁻¹ | – | – | – | – | – |
| A15G A42G | 0.132 ± 0.031 s⁻¹ | 0.00132 ± 0.00047 s⁻¹ | 3780 ± 970 µM | 0.00525 ± 0.0011 s⁻¹ | 0.024 ± 0.0099 s⁻¹ | – | – |
| A12G G41C | 0.000171 ± 2.4e-05 s⁻¹ | < 1e-05 s⁻¹ | – | – | – | 3.14e-05 ± 1.1e-05 s⁻¹ | 8.02e-05 ± 1.1e-05 s⁻¹ |
| G44C G66U | < 1e-05 s⁻¹ | < 1e-05 s⁻¹ | – | < 1e-05 s⁻¹ | < 1e-05 s⁻¹ | – | < 1e-05 s⁻¹ |
| A14C C67U | 0.00159 ± 0.00047 s⁻¹ | 5.24e-05 ± 9e-06 s⁻¹ | 1720 ± 820 µM | 0.000119 ± 1.7e-05 s⁻¹ | 0.000511 ± 6e-05 s⁻¹ | 0.000783 ± 8.1e-05 s⁻¹ | 0.00184 ± 0.00023 s⁻¹ |
| G32U U57C | 4.06e-05 ± 2.6e-06 s⁻¹ | – | 2420 ± 550 µM | – | – | – | 3.26e-05 ± 8.4e-06 s⁻¹ |
| G13U U55C | 0.000878 ± 0.00013 s⁻¹ | – | 3970 ± 1200 µM | 2.79e-05 ± 1.3e-05 s⁻¹ | 0.000149 ± 3.4e-05 s⁻¹ | 0.000304 ± 5.4e-05 s⁻¹ | 0.000642 ± 7e-05 s⁻¹ |
| G35U U55C | < 1e-05 s⁻¹ | < 1e-05 s⁻¹ | – | < 1e-05 s⁻¹ | – | < 1e-05 s⁻¹ | < 1e-05 s⁻¹ |
| G37A C71G | 0.000188 ± 2.3e-05 s⁻¹ | – | 2370 ± 690 µM | 3.34e-05 ± 1.4e-05 s⁻¹ | 4.08e-05 ± 7.8e-06 s⁻¹ | 9.24e-05 ± 9.5e-06 s⁻¹ | 0.000155 ± 1.4e-05 s⁻¹ |
| A14G G51A | 1.48e-05 ± 1.8e-06 s⁻¹ | – | – | – | – | – | – |
| G7U C70G | 0.000479 ± 0.00015 s⁻¹ | 0.000382 ± 0.00012 s⁻¹ | – | 0.000844 ± 0.0002 s⁻¹ | 0.0004 ± 0.00014 s⁻¹ | – | – |
| A15G A48U | 0.000853 ± 8.9e-05 s⁻¹ | – | 3930 ± 590 µM | 3.92e-05 ± 9.3e-06 s⁻¹ | 0.000113 ± 1.4e-05 s⁻¹ | 0.000349 ± 4.7e-05 s⁻¹ | 0.000604 ± 8.6e-05 s⁻¹ |
| A14U A15G | 0.0123 ± 0.0018 s⁻¹ | 0.000225 ± 4e-05 s⁻¹ | 2410 ± 520 µM | 0.000672 ± 0.00015 s⁻¹ | 0.00234 ± 0.00043 s⁻¹ | 0.0077 ± 0.0012 s⁻¹ | 0.00944 ± 0.0012 s⁻¹ |
| C16U C67G C68U | 6.15e-05 ± 1.2e-05 s⁻¹ | – | – | – | 7.27e-05 ± 2.2e-05 s⁻¹ | 6.31e-05 ± 2.8e-05 s⁻¹ | 5.02e-05 ± 1.9e-05 s⁻¹ |
| A14G A39U | 0.0511 ± 0.013 s⁻¹ | 0.00167 ± 0.00051 s⁻¹ | 1450 ± 480 µM | 0.00416 ± 0.0013 s⁻¹ | 0.0183 ± 0.0062 s⁻¹ | 0.0365 ± 0.014 s⁻¹ | 0.0395 ± 0.019 s⁻¹ |
| A39G C70A | 0.000304 ± 4.8e-05 s⁻¹ | 6.17e-05 ± 1.2e-05 s⁻¹ | 158 ± 60 µM | 0.000136 ± 3.1e-05 s⁻¹ | 0.000306 ± 4.3e-05 s⁻¹ | 0.000172 ± 7.3e-05 s⁻¹ | 0.000303 ± 5e-05 s⁻¹ |
| C11U G41U | 9.92e-05 ± 3.5e-06 s⁻¹ | – | 740 ± 130 µM | – | 4.38e-05 ± 1.5e-05 s⁻¹ | 8.28e-05 ± 1.7e-05 s⁻¹ | 9.12e-05 ± 1e-05 s⁻¹ |
| G41U U56C | 3.03e-05 ± 3.2e-06 s⁻¹ | – | 1560 ± 400 µM | < 1e-05 s⁻¹ | – | – | – |

| Variant | kcat (glucosamine-6-phosphate [1]) | self-cleavage kobs at 40 uM GlcN6P (glucosamine-6-phosphate [2]) | KM (glucosamine-6-phosphate [3]) | self-cleavage kobs at 160 uM GlcN6P (glucosamine-6-phosphate [4]) | self-cleavage kobs at 640 uM GlcN6P (glucosamine-6-phosphate [5]) | self-cleavage kobs at 2500 uM GlcN6P (glucosamine-6-phosphate [6]) | self-cleavage kobs at 10000 uM GlcN6P (glucosamine-6-phosphate [7]) |
| --- | --- | --- | --- | --- | --- | --- | --- |
| C50U U69G | 2.82e-05 ± 7.6e-06 s⁻¹ | – | – | 3.94e-05 ± 1.2e-05 s⁻¹ | – | 3.39e-05 ± 1.4e-05 s⁻¹ | – |
| C61U | 1.4e-05 ± 3.1e-06 s⁻¹ | < 1e-05 s⁻¹ | – | – | – | 2.23e-05 ± 2.6e-06 s⁻¹ | 1.19e-05 ± 1.4e-06 s⁻¹ |
| A42U C70G | 2.5e-05 ± 2e-06 s⁻¹ | – | 979 ± 380 µM | – | – | – | 2.35e-05 ± 9.3e-06 s⁻¹ |
| U31C U45G | 0.000845 ± 0.00014 s⁻¹ | – | 1870 ± 570 µM | 9.65e-05 ± 1.9e-05 s⁻¹ | 0.000189 ± 2.7e-05 s⁻¹ | 0.000505 ± 6.4e-05 s⁻¹ | 0.000713 ± 9.2e-05 s⁻¹ |
| A12C G43A | 6.99e-05 ± 1.2e-05 s⁻¹ | – | 1870 ± 800 µM | – | – | 3.76e-05 ± 8.6e-06 s⁻¹ | 6.33e-05 ± 1.9e-05 s⁻¹ |
| G29U A48C | 1.88e-05 ± 3.6e-07 s⁻¹ | < 1e-05 s⁻¹ | 138 ± 42 µM | < 1e-05 s⁻¹ | – | – | 1.85e-05 ± 7.6e-06 s⁻¹ |
| A14U G32C C71A | 3.18e-05 ± 4.6e-06 s⁻¹ | < 1e-05 s⁻¹ | – | – | – | – | 3.33e-05 ± 1.2e-05 s⁻¹ |
| U47A U54A U65C | 0.00046 ± 0.0001 s⁻¹ | – | 1750 ± 700 µM | – | 0.000114 ± 2.7e-05 s⁻¹ | 0.000387 ± 0.0001 s⁻¹ | 0.000358 ± 8.9e-05 s⁻¹ |
| A12G C34U C58U C68G | 3.16e-05 ± 4.5e-06 s⁻¹ | – | – | – | – | – | – |
| U56C C70A | 1.36e-05 ± 2.7e-06 s⁻¹ | – | – | – | – | – | – |
| C16G U69A | 4.79e-05 ± 1e-05 s⁻¹ | – | – | – | 6.57e-05 ± 1.6e-05 s⁻¹ | 5.05e-05 ± 1.2e-05 s⁻¹ | 3.59e-05 ± 1.2e-05 s⁻¹ |
| C11U C70G C71U | 5.18e-05 ± 1e-05 s⁻¹ | – | – | – | 7.99e-05 ± 2.7e-05 s⁻¹ | – | 5.18e-05 ± 1.3e-05 s⁻¹ |
| G13C A39U | 6.85e-05 ± 4.7e-06 s⁻¹ | < 1e-05 s⁻¹ | 4180 ± 820 µM | – | – | 2.64e-05 ± 1e-05 s⁻¹ | 4.82e-05 ± 7.1e-06 s⁻¹ |
| A14U A64U G66C | 1.84e-05 ± 4.5e-06 s⁻¹ | – | – | – | – | – | – |
| A14C A48G | < 1e-05 s⁻¹ | – | 1040 ± 200 µM | – | < 1e-05 s⁻¹ | – | – |
| G7A U54C | 1.94e-05 ± 3.6e-06 s⁻¹ | – | – | – | – | – | – |
| U56C C71U | 0.000531 ± 7.9e-05 s⁻¹ | – | 1380 ± 590 µM | – | 0.000219 ± 3.6e-05 s⁻¹ | 0.000287 ± 5.6e-05 s⁻¹ | 0.000477 ± 4.5e-05 s⁻¹ |
